Data taken from paper PMC6684798, “Structural basis for the target specificity of actin histidine methyltransferase SETD3” (Nature Communications, 2019).

Biological target: T1, SETD3 WT (Homo sapiens, UniProt Q86TU7)
T1 construct: GST (cleaved yes); made in house; host or cells: Escherichia coli BL21(DE3) CodonPlus
T1 sequence (Q86TU7 1-594): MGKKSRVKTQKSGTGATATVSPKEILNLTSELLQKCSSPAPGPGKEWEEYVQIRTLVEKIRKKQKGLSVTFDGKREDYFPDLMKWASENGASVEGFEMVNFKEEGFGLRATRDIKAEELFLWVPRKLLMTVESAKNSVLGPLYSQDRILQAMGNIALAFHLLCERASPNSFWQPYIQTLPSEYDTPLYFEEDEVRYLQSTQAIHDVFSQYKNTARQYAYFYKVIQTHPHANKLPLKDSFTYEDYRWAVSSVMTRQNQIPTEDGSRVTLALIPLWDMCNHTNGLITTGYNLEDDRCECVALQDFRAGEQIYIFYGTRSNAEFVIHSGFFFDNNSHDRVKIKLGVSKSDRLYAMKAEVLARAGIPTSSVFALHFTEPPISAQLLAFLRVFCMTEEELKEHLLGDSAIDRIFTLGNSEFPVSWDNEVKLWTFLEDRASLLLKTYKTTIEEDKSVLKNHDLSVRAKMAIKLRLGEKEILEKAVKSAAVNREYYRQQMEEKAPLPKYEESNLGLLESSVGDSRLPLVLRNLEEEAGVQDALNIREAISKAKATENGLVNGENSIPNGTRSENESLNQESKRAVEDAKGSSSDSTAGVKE
Assay: MALDI-TOF analysis of K73(66–88) methylation by SETD3 WT (Fig. 3e)
Type: biochemical
Settings: pH 10.5, 37 °C, 3 μM WT, 10 µM peptide, 40 µM SAM
Procedure: Fig. 3 Kinetics of SETD3 on H73 and K73 peptides. a Comparison of activities of three variants (WT, N255A, and N255V) on H73(66–80) peptide. The assays were performed at room temperature (~22 °C) and pH 8.0 using [WT] = 0.18 μM, [N255A] = 0.18 μM, and [N255V] = 0.72 μM. b Comparison of SETD3 WT activities on two K73 peptides (residues 66–80 and 66–88). The assays were performed at 37 °C and pH 10.5 using [WT] = 3 and 15 μM, respectively, for the long and short peptides. c Comparison of activities of three variants (N255A, N255V, and WT) on K73(66–88) peptide. The assays were performed at 37 °C and pH 10.5 using [N255A] = 90 nM, [N255V] = 0.72 μM and [WT] = 4 μM. Data represent the mean ± SD of N number of independent determinations (N = 3 for the WT and N = 2 for the mutants) performed in duplicate. Source data are provided as a Source Data file. d, e Mass spectrometry analysis of K73(66–88) methylation kinetic showing representative spectra at various time points for N255A variant (panel d) and SETD3 WT enzyme (panel e). […]
Recombinant human SETD3 (pXC2003) was expressed as a GST-fusion[22] in Escherichia coli BL21(DE3) CodonPlus^TM cells (Stratagene). […]
Actin K73 peptide (residues 66–88) was used as a substrate for SETD3 (Fig. 3d, e). […] We note that samples diluted into a 0.1% (v/v) TFA solution in water could not be detected by MALDI-TOF, thus the acetonitrile additive is necessary.

Substance: K73(66–88): K73-containing actin H73K peptide, residues 66–88 (TLKYPIEKGIVTNWDDMEKIWHH; UniProt P60709 66-88, looked up, variant H73K)
- K73 methylation product (2 h): only monomethyl lysine
- K73 methylation product (overnight): substantial amounts of unmodified and monomethyl substrates remain, along with a small amount of dimethyl and tri-methyl products
